T1: MPP7, Q5T2T1
T1 sequence (Q5T2T1 134-230, limits assumed, looked up): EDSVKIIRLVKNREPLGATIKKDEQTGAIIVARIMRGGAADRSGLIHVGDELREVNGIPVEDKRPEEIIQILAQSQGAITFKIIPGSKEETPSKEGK

T2: DLG3_3, Q92796
T2 sequence (Q92796 374-475, limits assumed, looked up): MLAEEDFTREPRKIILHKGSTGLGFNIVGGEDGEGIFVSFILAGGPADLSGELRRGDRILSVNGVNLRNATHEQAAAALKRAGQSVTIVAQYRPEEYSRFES

T3: MPP6, Q9NZW5
T3 sequence (Q9NZW5 125-219, limits assumed, looked up): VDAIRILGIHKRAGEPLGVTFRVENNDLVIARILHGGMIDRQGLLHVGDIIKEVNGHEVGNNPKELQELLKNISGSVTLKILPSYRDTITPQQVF

T4: RAPGEF6, Q8TEU7
T4 sequence (Q8TEU7 525-625, limits assumed, looked up): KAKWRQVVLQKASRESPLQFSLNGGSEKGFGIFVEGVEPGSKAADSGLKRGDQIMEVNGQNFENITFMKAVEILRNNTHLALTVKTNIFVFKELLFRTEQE

T5: LIN7A, O14910
T5 sequence (O14910 103-200, limits assumed, looked up): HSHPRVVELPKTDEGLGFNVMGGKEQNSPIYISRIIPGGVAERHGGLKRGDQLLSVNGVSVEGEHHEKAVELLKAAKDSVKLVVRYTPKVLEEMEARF

T6: APBA1_1, Q02410
T6 sequence (Q02410 651-752, limits assumed, looked up): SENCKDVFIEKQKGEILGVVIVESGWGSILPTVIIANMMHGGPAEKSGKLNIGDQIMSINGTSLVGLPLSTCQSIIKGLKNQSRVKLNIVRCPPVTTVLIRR

T7: SNTG1, Q9NSN8
T7 sequence (Q9NSN8 52-150, limits assumed, looked up): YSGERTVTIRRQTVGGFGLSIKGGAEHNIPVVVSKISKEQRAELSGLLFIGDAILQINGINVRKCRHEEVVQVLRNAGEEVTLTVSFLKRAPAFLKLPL

T8: GRIP1_4, Q9Y3R0
T8 sequence (Q9Y3R0 467-571, limits assumed, looked up): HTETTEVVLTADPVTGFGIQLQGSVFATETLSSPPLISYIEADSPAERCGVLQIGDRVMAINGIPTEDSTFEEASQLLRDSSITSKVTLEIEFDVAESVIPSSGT


Assays:
Assay in all cases: holdup assay
Parameters in all cases: key: below the threshold = too weak to quantify, mostly under pKd 3.1 to 4
Conditions in all cases: plain residues with an end cap or a label only (N-terminal biotin on a linker: ado-ado)
MPP7, Q5T2T1 = target: T1, MPP7, Q5T2T1
FRMPD2_1, Q68DX3 = target: FRMPD2_1, Q68DX3
Chain of FRMPD2_1, Q68DX3 (Q68DX3 770-861): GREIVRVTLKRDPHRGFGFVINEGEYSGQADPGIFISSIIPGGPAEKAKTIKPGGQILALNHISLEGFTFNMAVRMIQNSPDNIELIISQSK

DLG3_3, Q92796 = target: T2, DLG3_3, Q92796
LNX1_1, Q8TBB1 = target: LNX1_1, Q8TBB1
Chain of LNX1_1, Q8TBB1 (Q8TBB1 261-371): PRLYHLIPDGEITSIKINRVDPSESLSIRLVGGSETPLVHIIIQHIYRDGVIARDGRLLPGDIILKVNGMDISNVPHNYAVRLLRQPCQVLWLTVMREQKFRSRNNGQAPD

IL16_4, Q14005 = target: IL16_4, Q14005
Chain of IL16_4, Q14005 (Q14005 1229-1329): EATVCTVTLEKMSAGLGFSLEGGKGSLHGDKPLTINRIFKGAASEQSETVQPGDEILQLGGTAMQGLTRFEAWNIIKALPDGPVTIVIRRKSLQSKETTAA

CASK, O14936 = target: CASK, O14936
Chain of CASK, O14936 (O14936 487-570): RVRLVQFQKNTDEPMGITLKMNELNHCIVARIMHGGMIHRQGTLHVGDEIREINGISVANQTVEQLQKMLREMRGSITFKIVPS

MPP6, Q9NZW5 = target: T3, MPP6, Q9NZW5
Inadl_9, Q8NI35 = target: Inadl_9, Q8NI35
Chain of Inadl_9, Q8NI35 (Q8NI35 1530-1615): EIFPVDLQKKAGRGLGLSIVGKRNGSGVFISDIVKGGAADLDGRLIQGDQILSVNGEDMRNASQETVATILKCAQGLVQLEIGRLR

IL16_3, Q14005 = target: IL16_3, Q14005
Chain of IL16_3, Q14005 (Q14005 1107-1207): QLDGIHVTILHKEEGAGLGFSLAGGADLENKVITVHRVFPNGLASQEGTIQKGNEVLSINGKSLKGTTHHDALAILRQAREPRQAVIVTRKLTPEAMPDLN

RAPGEF6, Q8TEU7 = target: T4, RAPGEF6, Q8TEU7
HTRA2, O43464 = target: HTRA2, O43464
Chain of HTRA2, O43464 (O43464 355-458): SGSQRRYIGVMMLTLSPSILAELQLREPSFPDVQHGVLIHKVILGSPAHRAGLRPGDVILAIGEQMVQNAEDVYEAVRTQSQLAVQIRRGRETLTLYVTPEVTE

MAST1, Q9Y2H9 = target: MAST1, Q9Y2H9
Chain of MAST1, Q9Y2H9 (Q9Y2H9 962-1065): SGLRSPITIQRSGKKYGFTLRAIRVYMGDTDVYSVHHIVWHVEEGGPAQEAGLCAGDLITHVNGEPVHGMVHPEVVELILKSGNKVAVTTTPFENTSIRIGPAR

DLG1_3, Q12959 = target: DLG1_3, Q12959
Chain of DLG1_3, Q12959 (Q12959 457-571): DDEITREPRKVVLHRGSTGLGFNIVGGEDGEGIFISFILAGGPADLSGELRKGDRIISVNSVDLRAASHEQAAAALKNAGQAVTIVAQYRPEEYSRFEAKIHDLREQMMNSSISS

LNX1_3, Q8TBB1 = target: LNX1_3, Q8TBB1
Chain of LNX1_3, Q8TBB1 (Q8TBB1 500-596): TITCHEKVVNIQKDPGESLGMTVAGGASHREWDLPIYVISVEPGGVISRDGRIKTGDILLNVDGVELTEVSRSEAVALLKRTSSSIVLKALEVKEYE

GRIP2_6, Q9C0E4 = target: GRIP2_6, Q9C0E4
Chain of GRIP2_6, Q9C0E4 (Q9C0E4 648-740): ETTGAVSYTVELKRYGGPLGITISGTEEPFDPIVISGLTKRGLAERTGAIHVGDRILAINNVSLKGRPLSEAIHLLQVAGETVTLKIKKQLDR

FRMPD3, Q5JV73 = target: FRMPD3, Q5JV73
Chain of FRMPD3, Q5JV73 (Q5JV73 12-100): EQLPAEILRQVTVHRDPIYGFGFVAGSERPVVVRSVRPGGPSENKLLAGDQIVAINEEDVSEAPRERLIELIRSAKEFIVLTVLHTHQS

MAGI1_2, Q96QZ7 = target: MAGI1_2, Q96QZ7
Chain of MAGI1_2, Q96QZ7 (Q96QZ7 456-580): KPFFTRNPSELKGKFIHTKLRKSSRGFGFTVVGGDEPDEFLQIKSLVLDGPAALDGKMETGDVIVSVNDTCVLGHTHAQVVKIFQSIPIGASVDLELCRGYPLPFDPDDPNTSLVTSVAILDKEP

LIN7A, O14910 = target: T5, LIN7A, O14910
LDB3, O75112 = target: LDB3, O75112
Chain of LDB3, O75112 (O75112 1-94): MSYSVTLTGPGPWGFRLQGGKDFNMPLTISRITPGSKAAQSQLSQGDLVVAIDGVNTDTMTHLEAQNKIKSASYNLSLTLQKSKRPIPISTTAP

APBA1_1, Q02410 = target: T6, APBA1_1, Q02410
NHERF4_4, Q86UT5 = target: NHERF4_4, Q86UT5
Chain of NHERF4_4, Q86UT5 (Q86UT5 464-550): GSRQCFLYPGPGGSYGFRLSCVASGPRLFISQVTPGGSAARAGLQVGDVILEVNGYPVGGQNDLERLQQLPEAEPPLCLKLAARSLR

GRIP2_4, Q9C0E4 = target: GRIP2_4, Q9C0E4
Chain of GRIP2_4, Q9C0E4 (Q9C0E4 446-548): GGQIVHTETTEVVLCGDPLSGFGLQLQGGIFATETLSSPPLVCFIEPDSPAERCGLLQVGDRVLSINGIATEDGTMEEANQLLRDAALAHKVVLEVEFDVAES

SNTG1, Q9NSN8 = target: T7, SNTG1, Q9NSN8
GRIP2_5, Q9C0E4 = target: GRIP2_5, Q9C0E4
Chain of GRIP2_5, Q9C0E4 (Q9C0E4 544-642): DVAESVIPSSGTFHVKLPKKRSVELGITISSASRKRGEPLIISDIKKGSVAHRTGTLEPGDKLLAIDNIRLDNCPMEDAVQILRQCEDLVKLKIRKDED

GRIP1_4, Q9Y3R0 = target: T8, GRIP1_4, Q9Y3R0
LIMK2, P53671 = target: LIMK2, P53671
Chain of LIMK2, P53671 (P53671 143-248): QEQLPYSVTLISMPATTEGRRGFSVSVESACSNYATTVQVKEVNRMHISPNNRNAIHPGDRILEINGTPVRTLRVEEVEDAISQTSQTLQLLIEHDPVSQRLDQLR

HTRA1, Q92743 = target: HTRA1, Q92743
Chain of HTRA1, Q92743 (Q92743 360-477): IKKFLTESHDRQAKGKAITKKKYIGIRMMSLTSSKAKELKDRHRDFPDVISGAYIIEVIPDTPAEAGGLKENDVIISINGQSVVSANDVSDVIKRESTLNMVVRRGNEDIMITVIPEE

PDZRN4_1, Q6ZMN7 = target: PDZRN4_1, Q6ZMN7
Chain of PDZRN4_1, Q6ZMN7 (Q6ZMN7 213-318): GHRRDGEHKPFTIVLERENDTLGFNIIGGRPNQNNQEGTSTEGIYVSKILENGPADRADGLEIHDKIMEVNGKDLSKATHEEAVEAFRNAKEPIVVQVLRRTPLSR

MAGI1_1, Q96QZ7 = target: MAGI1_1, Q96QZ7
Chain of MAGI1_1, Q96QZ7 (Q96QZ7 1-106): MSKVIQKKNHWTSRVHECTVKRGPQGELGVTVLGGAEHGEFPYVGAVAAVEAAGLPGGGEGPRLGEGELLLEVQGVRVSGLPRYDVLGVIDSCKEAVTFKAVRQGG

pKd (MPP7, Q5T2T1) | pKd (FRMPD2_1, Q68DX3) | pKd (DLG3_3, Q92796) | pKd (LNX1_1, Q8TBB1) | pKd (IL16_4, Q14005) | pKd (CASK, O14936) | pKd (MPP6, Q9NZW5) | pKd (Inadl_9, Q8NI35) | pKd (IL16_3, Q14005) | pKd (RAPGEF6, Q8TEU7) | pKd (HTRA2, O43464) | pKd (MAST1, Q9Y2H9) | pKd (DLG1_3, Q12959) | pKd (LNX1_3, Q8TBB1) | pKd (GRIP2_6, Q9C0E4) | pKd (FRMPD3, Q5JV73) | pKd (MAGI1_2, Q96QZ7) | pKd (LIN7A, O14910) | pKd (LDB3, O75112) | pKd (APBA1_1, Q02410) | Binder | further results
below the threshold | 3.5 | 3.71 | 3.95 | below the threshold | below the threshold | below the threshold | below the threshold | below the threshold | 3.67 | below the threshold | 4.15 | 3.71 | below the threshold | below the threshold | below the threshold | 3.91 | below the threshold | below the threshold | below the threshold | RGKNRRQSIF [CDK18, Q07002] | pKd (NHERF4_4, Q86UT5): below the threshold; pKd (GRIP2_4, Q9C0E4): below the threshold; pKd (SNTG1, Q9NSN8): below the threshold; pKd (GRIP2_5, Q9C0E4): below the threshold; pKd (GRIP1_4, Q9Y3R0): below the threshold; pKd (LIMK2, P53671): below the threshold; pKd (HTRA1, Q92743): 4; pKd (PDZRN4_1, Q6ZMN7): below the threshold; pKd (MAGI1_1, Q96QZ7): below the threshold
below the threshold | below the threshold | below the threshold | below the threshold | 3.7 | below the threshold | below the threshold | below the threshold | below the threshold | below the threshold | below the threshold | 4.99 | below the threshold | below the threshold | below the threshold | 3.63 | below the threshold | below the threshold | 3.53 | below the threshold | VISSDDLTEL [CAPN6, Q9Y6Q1] | pKd (NHERF4_4, Q86UT5): below the threshold; pKd (GRIP2_4, Q9C0E4): below the threshold; pKd (SNTG1, Q9NSN8): below the threshold; pKd (GRIP2_5, Q9C0E4): below the threshold; pKd (GRIP1_4, Q9Y3R0): below the threshold; pKd (LIMK2, P53671): below the threshold; pKd (HTRA1, Q92743): 4.55; pKd (PDZRN4_1, Q6ZMN7): below the threshold; pKd (MAGI1_1, Q96QZ7): below the threshold
below the threshold | below the threshold | below the threshold | 3.58 | 3.61 | below the threshold | below the threshold | below the threshold | below the threshold | below the threshold | below the threshold | 4.85 | below the threshold | below the threshold | below the threshold | below the threshold | below the threshold | 3.65 | below the threshold | below the threshold | AKADAQESRL [PLCB2, Q00722] | pKd (NHERF4_4, Q86UT5): below the threshold; pKd (GRIP2_4, Q9C0E4): below the threshold; pKd (SNTG1, Q9NSN8): below the threshold; pKd (GRIP2_5, Q9C0E4): below the threshold; pKd (GRIP1_4, Q9Y3R0): below the threshold; pKd (LIMK2, P53671): below the threshold; pKd (HTRA1, Q92743): below the threshold; pKd (PDZRN4_1, Q6ZMN7): 4.5; pKd (MAGI1_1, Q96QZ7): below the threshold
below the threshold | 3.73 | 3.81 | 3.9 | below the threshold | below the threshold | below the threshold | below the threshold | below the threshold | below the threshold | below the threshold | 4.24 | below the threshold | 3.5 | below the threshold | below the threshold | 4.75 | below the threshold | below the threshold | below the threshold | TFSRRPKTRV [CD226, Q15762] | pKd (NHERF4_4, Q86UT5): below the threshold; pKd (GRIP2_4, Q9C0E4): 3.54; pKd (SNTG1, Q9NSN8): below the threshold; pKd (GRIP2_5, Q9C0E4): below the threshold; pKd (GRIP1_4, Q9Y3R0): below the threshold; pKd (LIMK2, P53671): below the threshold; pKd (HTRA1, Q92743): below the threshold; pKd (PDZRN4_1, Q6ZMN7): below the threshold; pKd (MAGI1_1, Q96QZ7): 3.62
below the threshold | 3.89 | 4.43 | 4.06 | below the threshold | below the threshold | below the threshold | 3.58 | below the threshold | below the threshold | below the threshold | 4.48 | 4.15 | below the threshold | 3.86 | below the threshold | 4.96 | below the threshold | below the threshold | below the threshold | THHRKIHTRV [ZNF599, Q96NL3] | pKd (NHERF4_4, Q86UT5): below the threshold; pKd (GRIP2_4, Q9C0E4): below the threshold; pKd (SNTG1, Q9NSN8): 3.61; pKd (GRIP2_5, Q9C0E4): 3.48; pKd (GRIP1_4, Q9Y3R0): below the threshold; pKd (LIMK2, P53671): below the threshold; pKd (HTRA1, Q92743): 3.67; pKd (PDZRN4_1, Q6ZMN7): below the threshold; pKd (MAGI1_1, Q96QZ7): 3.58

From paper PMC9482650, “Quantitative fragmentomics allow affinity mapping of interactomes” (Nature Communications, 2022)
